Measurements published in IntAct's records for PubMed 31515488.

B1: Cyclin-dependent kinase 4 (Homo sapiens), P11802 (parent)
chain: MATSRYEPVAEIGVGAYGTVYKARDPHSGHFVALKSVRVPNGGGGGGGLPISTVREVALLRRLEAFEHPNVVRLMDVCATSRTDREIKVTLVFEHVDQDLRTYLDKAPPPGLPAETIKDLMRQFLRGLDFLHANCIVHRDLKPENILVTSGGTVKLADFGLARIYSYQMALTPVVVTLWYRAPEVLLQSTYATPVDMWSVGCIFAEMFRRKPLFCGNSEADQLGKIFDLIGLPPEDDWPRDVSLPRGAFPPRGPRPVQSVVPEMEESGAQLLLEMLTFNPHKRISAFRALQHSYLHKDEGNPE
B2: Protein FAM9B (Homo sapiens), Q8IZU0 (parent)
chain: MAAWGKKHAGKDPVRDECEERNRFTETREEDVTDEHGEREPFAETDEHTGANTKKPEDTAEDLTAKRKRMKMDKTCSKTKNKSKHALRKKQLKRQKRDYIHSLKLLNVLEEYITDEQKEEEEEEGEEEELIRIFQEQQKKWQQYRSVRRERLKEMKLLRDQFVKALEDFEDLCDRVFSDEDSELDN
partner: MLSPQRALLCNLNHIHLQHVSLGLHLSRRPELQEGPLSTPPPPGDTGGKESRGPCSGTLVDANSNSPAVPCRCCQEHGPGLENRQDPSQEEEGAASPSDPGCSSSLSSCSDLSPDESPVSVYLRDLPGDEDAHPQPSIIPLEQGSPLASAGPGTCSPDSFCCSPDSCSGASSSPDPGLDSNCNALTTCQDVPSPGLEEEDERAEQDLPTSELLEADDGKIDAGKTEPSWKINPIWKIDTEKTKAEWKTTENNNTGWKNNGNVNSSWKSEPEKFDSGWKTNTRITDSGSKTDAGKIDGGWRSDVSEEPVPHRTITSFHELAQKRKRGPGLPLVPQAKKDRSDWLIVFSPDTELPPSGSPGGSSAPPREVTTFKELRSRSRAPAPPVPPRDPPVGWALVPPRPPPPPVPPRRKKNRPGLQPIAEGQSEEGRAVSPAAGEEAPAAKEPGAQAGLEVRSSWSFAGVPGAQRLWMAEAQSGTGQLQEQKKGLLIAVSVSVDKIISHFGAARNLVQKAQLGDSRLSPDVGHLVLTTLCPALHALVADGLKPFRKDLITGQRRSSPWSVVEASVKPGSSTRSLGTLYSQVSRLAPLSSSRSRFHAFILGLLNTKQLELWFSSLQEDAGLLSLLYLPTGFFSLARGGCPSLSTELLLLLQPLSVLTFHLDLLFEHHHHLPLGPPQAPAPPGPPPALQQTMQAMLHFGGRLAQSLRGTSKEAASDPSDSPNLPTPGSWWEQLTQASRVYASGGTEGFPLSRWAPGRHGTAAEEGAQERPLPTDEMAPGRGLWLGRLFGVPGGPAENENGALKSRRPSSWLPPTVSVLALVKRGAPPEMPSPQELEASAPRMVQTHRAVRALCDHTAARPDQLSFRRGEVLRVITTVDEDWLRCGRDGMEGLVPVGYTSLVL

Variants of: B1
Details: with ccnd1_human CCND1, P24385
Sequence of ccnd1_human CCND1, P24385 (P24385 whole entry): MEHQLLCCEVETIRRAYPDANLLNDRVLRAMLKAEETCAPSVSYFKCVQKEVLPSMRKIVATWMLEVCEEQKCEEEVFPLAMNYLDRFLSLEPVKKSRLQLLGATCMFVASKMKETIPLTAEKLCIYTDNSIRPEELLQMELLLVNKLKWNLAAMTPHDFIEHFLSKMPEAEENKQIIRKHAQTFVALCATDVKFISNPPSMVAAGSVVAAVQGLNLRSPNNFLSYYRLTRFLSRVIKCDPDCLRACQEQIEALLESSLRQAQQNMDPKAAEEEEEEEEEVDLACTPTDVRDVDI
With R24H the “effect of a mutation on the interaction” value was “with no effect”.
In the case of R255H, the “effect of a mutation on the interaction” value is reported as “with no effect”.
S52N was tested, and the “effect of a mutation on the interaction” value was “with no effect”.
For N41S, the “effect of a mutation on the interaction” value was “with no effect”.

Variants of: B1
Details: with ccnd1_human CCND1, P24385
Remark: another data set of the same source
For R255C, the “effect of a mutation on the interaction” value was “with no effect”.
S267P was tested, and the “effect of a mutation on the interaction” value was “with no effect”.
In the case of K22R, the “effect of a mutation on the interaction” value is reported as “with no effect”.

Variants of: B1
Details: with ccnd2_human CCND2, P30279
Sequence of ccnd2_human CCND2, P30279 (P30279 whole entry): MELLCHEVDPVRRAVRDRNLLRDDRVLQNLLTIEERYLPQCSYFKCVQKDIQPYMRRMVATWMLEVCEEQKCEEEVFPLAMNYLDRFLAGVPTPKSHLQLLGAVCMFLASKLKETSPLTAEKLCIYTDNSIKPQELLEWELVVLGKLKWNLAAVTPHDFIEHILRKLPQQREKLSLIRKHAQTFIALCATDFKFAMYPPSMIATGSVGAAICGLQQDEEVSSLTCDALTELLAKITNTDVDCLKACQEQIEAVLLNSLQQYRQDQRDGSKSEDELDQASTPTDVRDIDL
In the case of R255C, the “effect of a mutation on the interaction” value is reported as “with no effect”.
For S267P, the “effect of a mutation on the interaction” value was “with no effect”.
In the case of K22R, the “effect of a mutation on the interaction” value is reported as “with no effect”.

Variants of: B1
Details: with cdn2c_human CDKN2C
For R255C, the “effect of a mutation on the interaction” value was “with no effect”.
With S267P the “effect of a mutation on the interaction” value was “with no effect”.
In the case of K22R, the “effect of a mutation on the interaction” value is reported as “with no effect”.

Variants of: B1
Details: with ccnd3_human CCND3, P30281
Sequence of ccnd3_human CCND3, P30281 (P30281 whole entry): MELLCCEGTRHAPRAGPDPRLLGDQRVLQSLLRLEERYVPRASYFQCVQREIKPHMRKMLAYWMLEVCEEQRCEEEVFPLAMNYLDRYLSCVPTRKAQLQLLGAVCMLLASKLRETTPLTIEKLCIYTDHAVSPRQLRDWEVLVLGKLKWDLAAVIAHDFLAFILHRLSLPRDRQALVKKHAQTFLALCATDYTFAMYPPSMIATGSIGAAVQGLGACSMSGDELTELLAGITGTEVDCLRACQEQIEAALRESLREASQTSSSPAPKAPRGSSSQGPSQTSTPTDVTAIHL
R255C was tested, and the “effect of a mutation on the interaction” value was “with no effect”.
For S267P, the “effect of a mutation on the interaction” value was “with no effect”.
In the case of K22R, the “effect of a mutation on the interaction” value is reported as “with no effect”.

Variants of: B1
Details: with ccnd3_human CCND3, P30281
Remark: another data set of the same source
For R255H, the “effect of a mutation on the interaction” value was “with no effect”.
In the case of S52N, the “effect of a mutation on the interaction” value is reported as “with no effect”.
In the case of R209C, the “effect of a mutation on the interaction” value is reported as “with no effect”.

Variants of: B1
Details: with cdn2c_human CDKN2C
Remark: another data set of the same source
With R255H the “effect of a mutation on the interaction” value was “with no effect”.
In the case of S52N, the “effect of a mutation on the interaction” value is reported as “with no effect”.
R209C was tested, and the “effect of a mutation on the interaction” value was “with no effect”.

Variants of: B1
Details: with ccnd2_human CCND2, P30279
Remark: another data set of the same source
In the case of R255H, the “effect of a mutation on the interaction” value is reported as “with no effect”.

Variants of: B1
Details: with cdn2b_human CDKN2B
For S52N, the “effect of a mutation on the interaction” value was “with no effect”.
With R209C the “effect of a mutation on the interaction” value was “with no effect”.

Variants of: B2
Details: with rusc1_human RUSC1, Q9BVN2
With R23H the “effect of a mutation on the interaction” value was “with no effect”.
